Assay: soluble on expression in E. coli; label from the status in PepcDB or PDB records

| Sequence | soluble on expression in E. coli |
| --- | --- |
| GMSDHVCQEGCRHHSHGEDSPEIQQEFQEGRRDFMRDFAVGGVLASAASLGISSSAFGQTMPKTGLTSGHATHYYIPASDKTVSWGFFSKSLKPVVELESGDFATIETLTHHSNDDASLMVKGDPGAESVFYWDSKRKNVDRRGMGPMDHKLGAGGGMGVHILTGPVAIKGAEPGDVLEVRIVDVALRPSANPEFKGKTFGSNVAANWGFHYNELIEEPKKREVVTIYELDATGERNWARAFYNYRWTPQKDPFGVVHPIVDYPGVPVDHSTISKNYNVLKNIRVPVRPHFGTMGLAPKEADLVNSVPPSHFGGNIDNWRIGKGATMYYPVSVAGGLFSVGDPHASQGDSEMCGTAIECSLTGTFQFILHKKADLPGTPLADLQYPLLETQDEWVLHGFSYANYLAELGPDAQNSIFSKSSLDLALKDAFRKMRHFLMQTQNLTEDEAVSLMSIGVDFGITQVVDGNWGVHAVVKKGIFPGRDV | soluble |
| MAHHHHHHMIVELNPANFHKVVKDPSKNVFVMFYAPWCGHCNNMKPMWLELADKYPTAEDVIIARIDASEYRGIAKEFDIRGFPTLKFFSKRDKSGEIEYDGPRELSAFVAYVATNKQ | not soluble |
| MARPQSKKKQTQVARRPRRRGRWVPPSRLIAGRDFPEFLRQAVLLSGSLRQAARKLRVSYSTLRGWLGRRCEEPPEGERDLLAGHVAAIRTELDVAAEHLAIVRGQLDALERGDDG | not soluble |
| MDSVMRKSLFLLLPLVVTNAHAVYVDVRHEYLDDSKANYDRAYISHRFANGVGFAIEAISKSGGDDTNKAFNDLETQGNEYTISYQFKTGDVAWQPGFVLETGNGYSTYKPYFRATWTLNESWWVGARYRFEYVRRSSDIRDDDTINRMDVWAGYKWNNFDWTIEGIYKKADKYDLYDGGKDNYEYNFRTAYIIDQWSPFVEVGNVSVNSNSDERQTRFRVGIGYTF | not soluble |
| MSTLGDLLAEHTVLPGSAVDHLHAVVGEWQLLADLSFADYLMWVRRDDGVLVCVAQCRPNTGPTVVHTDAVGTVVAANSMPLVAATFSGGVPGREGAVGQQNSCQHDGHSVEVSPVRFGDQVVAVLTRHQPELAARRRSGHLETAYRLCATDLLRMLAEGTFPDAGDVAMSRSSPRAGDGFIRLDVDGVVSYASPNALSAYHRMGLTTELEGVNLIDATRPLISDPFEAHEVDEHVQDLLAGDGKGMRMEVDAGGATVLLRTLPLVVAGRNVGAAILIRDVTEVKRRDRALISKDATIREIHHRVKNNLQTVAALLRLQARRTSNAEGREALIESVRRVSSIALVHDALSMSVDEQVNLDEVIDRILPIMNDVASVDRPIRINRVGDLGVLDSDRATALIMVITELVQNAIEHAFDPAAAEGSVTIRAERSARWLDVVVHDDGLGLPQGFSLEKSDSLGLQIVRTLVSAELDGSLGMRDARERGTDVVLRVPVGRRGRLML | not soluble |
| MKREILLERIDKLKQLMPWYVLEYYQSKLAVPYSFTTLYEYLKEYDRFFSWVLESGISNADKISDIPLSVLENMSKKDMESFILYLRERPLLNANTTKQGVSQTTINRTLSALSSLYKYLTEEVENDQGEPYFYRNVMKKVSTKKKKETLAARAENIKQKLFLGDETEGFLTYIDQEHPQQLSNRALSSFNKNKERDLAIIALLLASGVRLSEAVNLDLRDLNLKMMVIDVTRKGCKRDSVNVAAFAKPYLENYLAIRNQRYKTEKTDTALFLTLYRGVPNRIDASSVEKMVAKYSEDFKVRVTPHKLRHTLATRLYDATKSQVLVSHQLGHASTQVTDLYTHIVSDEQKNALDSL | not soluble |
| MGREALGKCPVCNNETTITRITCEKCNTTIEGRFDLCKFCRLTPEQKLFVDVFIKCRGNIKEVEKELGVSYPTVKNKLEDVANALGHKSEEAPVEETNRKEILDKLYEGEISVDEALELLKG | not soluble |
| MNYFGKLQIRFSKSFLLLLIVSSLTACVDLTGARNTYIKKEKQPAISDVPNKKSKAQNMSSKKGEVHTMLGGLGIFSKGMYTLRDKVSEKYHITAHSTMWYNAGAVSRYIIDHYYQEKDHKPIILVGHSLGANEQIKVARNLNAAGVPVALLVTVDAVSQTIVPPNVKQALNVYKPGFVPMFSGLKLRAVDPQLTKIDNINVDSIKGIKVNHFTIDKDEILQAMIMDKVDKVLVDGNKKGA | not soluble |
| SNSSPPPANSANGDTTNNGENGQDLNLNFLDKIRLSTKRDAKEDEGEELPTELNTINSAGGFLVVSPDKLSVKYTNTNLHGHDVGVVQANKPAPIKCLTYYFEIFVKDSGIKGQIAIGFTKESFKMRRQPGWEVNSCGYHGDDGYLYRGQGKGEPFGPKFTKDDAVGGGINYASQEFFFTKNGTIVGKIPKDIRGHLFPTVAVHSQNEEVLVNFGKKKFAFDIKGYEASERNKQQLAIEKISIPPNIGYGLVKTYLLHYGYEETLDAFNLATKNTVPPIHIDQENAIDEDDSSYALKQRKNLRQLVRNGEIDTALAELQKLYPQIVQDDKSVVCFLLHCQKFIELVRVGKLEEGVNYGRLELAKFVGLTGFQDIVEDCFALLAYEKPEESSVWYFLEDSQRELVADAVNAAILSTNPNKKDVQRSCHLQSHLEKLLRQLTVCCLERRSLNGDQGETFRLRHVLNNNR | soluble |
| MLPFLAASPGLGDVRAPAIWLGLVSQPSRTPIITKNSKTKRKTDGSTTRQSSSLGPRSSPLRSAGGQLRKTTRSELKKSHFHLGSWNAQSLLGPRLASGVEYLKNSTCHVVNLQETRFFSMASIDQPEFQLLFSPKTNSKDLGLGFFVKKCQDLEVINVSWIGVGIASLELEFRKVKIMVLNVYAPVCKSRSENDAKRFFERLRAEYIQLRKSFKGPIVLGGDFNAATSCSTNDELAPWICGNVFGNSNNHGDFFFNFLASTRLFQLNSRFRKRLASRWTFAGKKGVGRTEIDFFISNRIDLVEDVSTFPNLHNLSDHRLIRSRWVISVKSERDHAFKSRRPPSTGKERDWTLYEDAIKDLRKHATLGSYDSFVKTLRQGLVPLPAHKPHKFSQRTIMILQERRQVLESSVPDIAKLRKLSQEARKSITEDLTQKYDSILEACRKKRSSKILNKSIPAEIPLQYLEWPDGSLTANRIEIRKIVESHFKTLYEAPTSSPSHPRNPNSNPPNSDPVPAILKCEVRLEIRKLKTKSAPGLDNVDAAMLKNGGDTVVDSVTALFNDILHHNKVPDLWKIADVKLIPKKAKATKIKDFRPISLLPILSKMFSSILTRRLTPTLESYLDESQTKVFRKGRCCADNIQSLTMLIEKCNEFQLPLLLLFIDYQTAFDKISHSSVVSSLERAGADPAMRKMIQELMEGGQAEITVHDKKLKVNLCTGIRQGDSASPALFSAALQAILTDCDNELAGVGISVEGRHIRRLEFADDVVLICSTPEEVQERLEILDRISSNYGLKINQSKTVLLKNKFCRSQDILFNGSPIIPVPGCRYLGRWIDISGSIDEEISRRIRAGWGALVGIKEVLRIMPNKERIILFKQNVLPALLYASETWTCNAGSTLRLKRTVTGLIDAAEIRGWNFNLERYLLAKQSRFAGHILRRDPF | not soluble |
| MQRVGNTFSNESRVASRCPSVGLAERNRVATMPVRLLRDSPAAQEDNDHARDGFQMKLDAHGFAPEELVVQVDGQWLMVTGQQQLDVRDPERVSYRMSQKVHRKMLPSNLSPTAMTCCLTPSGQLWVRGQCVALALPEAQTGPSPRLGSLGSKASNLTR | soluble |
| MYNSATVIYQNLLKSTPKKASEYYYYLGDICWRKEKTDSAKYYFMEGIKTDETYAMNYVGIGIITMKSNATEGQRSFDKALQMTSQKNSQVLNAIGEYYILEADKAELPKGIALLKKSTEIDAKNAMSWILLGDAYGKQAEGSKQAESYGKAANLFHSVPLLKMKYGKMYAAARNKDLSIKYYNEGLAADPTYGPIYRELGDLYNRFRQYDLAIQNYKKYLTYIDSNDDVEFRYADFLFKNNNYAEAIEVFNKLEAKKYNSPYIYNRRAVCYYELAKYDLAQKDIETYFSKVNATKAKLEHHHHHH | not soluble |
| MALICELDEQWSYVGSKARLHWLWYAYNTKTGGVLAYTFGPRTDQTCRELLALLTPFNIGMLTSDDWDSYGRVVPKNKHLTGKIFTQRIERNNLTLRTHIKRLARKQSASHAQLRSTKK | not soluble |
| MGHHHHHHSHMQDGFLTVSIIDATNNRPIQNAVVNIYSMSNGSQSSSTLYQNLRSNESGQVTGLVLPAPDVDYSLQPSDVRPYSQYIVEAIADGYETVVIEGTQLLATIEARQGVPMSPRTRSKRSFSRQSELIFDIGEHTLYGTYPPKIPESNLKPLPPPTGFVVLDNPVVPEFIVVHDGLPEDSSAPNYWIPFKEYIKNIASSEIYSTWPEQTIYANVIAIISFTLNRVFTEWYRNKGYNFTITSTTAYDHKFINNRNLFEPINVVVDAIFNTFIKRPPTSRQPLLAQYCDGQKSQCPDQMTQWGSKDLGDQGYDYESILRYFYGDEIVFERAPIVSGVPVSFPGTTLQVGSSGQYVRTIQNQLNAISNSYPAVPKVIEDGIYGTDTENAVKIFQGIFGLPQSGVVDFKTWYEISRVYVATTRIASLNPLI | soluble |
| SLSRRGIDFLNDWIAEHHPDTLTEDPTAIADLADQLMAAAEKQGLSRRDISEEVGSVFQVILEAMQNRSGGRLYSSRWG | soluble |
| SLKNTGYILALCLTASGHVLAHDVWITGKQAENNVTAEIGYGHNFPSKGTIPDRRDFFENPRLYNGKETITLKPASTDYVYKTESASKDNGYVLSTYMKPGYWSRTSSGWKPVSREGRNDVAYCEFVTKYAKSFIPGEQQMPAQLYQSPTGHELEIIPLSDISRFSENVKLKVLYKTSPLAGAIMELDSVSYLTSSRHTHAVEHKHPVHKAELTFVTNEDGIVTVPSLHIGQWLAKVQNKKSFQDKSLCDETVDVATLSFSRN | not soluble |
| SLDEITAVVRTAARELVSADGATFVLRENGNCFYADEDAIAPLWKGLRFPLERCISGWVMLNRQAAVIEDIYQDQRIPVEAYRPTFVQSLAMVPIRGEDPIGAIGTYWARRH | not soluble |
| MAHHHHHHMSGRPEEGLYGNVESQSSNVSQGGRRRTRSEFEGDTDHSSATRIRLEGMYRPQWTMSSTVKDILLEGSTLRTDMKLNEFIRSNLDEEWVVERNGNVIMEAFVQEPDAYVQDQELLRRIINLPAYQALEERKILLEATYKLHHEGVYFLRQWGEHEGKDTVSSHARGKLNGVLTGIEIEEKERREAEEREKARREEEARRDAEEEKARREEQINFNLTLSIKDAIFQGRARVYKMKLNRFLKMELDGRGVADTNRRVLLKEFFKDPTRYVRDAGVLNEIQASDAYLMAKRAVREEMDMEEDIRKLQYKHLRTLLGWSIASAEIRASVREITKGFLDAVLEELRKPTTTIAR | not soluble |
| MPNDVDNTKITLSLGKCGYLPQDVRTMTKFDKNTKQIRTFAFVEFSNRETAEQWMTDYEGWLTLDDGRTLAVEYAKGDPAAGSGNKGDDWICAHCSMNNFVKRQTCFKCEISKDQSMELEKLGAHMVGMTPCDTLLIRGLPDGINNSLIFDSLGALVCLSSISMIKLSESKRFAYLQMKSADEAKMLLNLTYKSPIRIKDKDVQVSWCRDSMSKLIQQQMTMLTAGPGKNSVATGSLAQGNMTGAEIAAAALSKANAVRQASQQVGQIMTGLPAPAANMIPPNFSVPPPNLSVPPPMQATQPEHQNGVIGMTQTPKGLLPRYLPPNPLTFAHDPNLGYYVDPITKFCYDSATGYYFNNATSQWCNWDLTHHTYFPVETPAVINSADPEEEKMKKNEEGPKTAQDLVKDMAKWAKRQEKDKKKVQISIKGKETKGIELKNVFSNEKQKRIAQTAALFDDDEEEDQEEEVRGRRSEEPSTSSSFSSVPLAPRKSTLQDVRDAMERALYDETKKTCMLCKRAFSDVEVLRKHVEKSDLHRNNLEAKRAEWGRETAAKLQEEEEDASAPDLPKIVYRDRAKERRRQFGIDSTGYAFDVMGGPPGPTSVRHEETIRKVSEEASKRPLDESNIGNRLLKSMGWKEGQGVGKHAQGIVNPIEAERFVQGAGLGAAGSKMRHGAEASHKEKTRQALYSRYHDA | not soluble |

— the DeepSol protein solubility set
